The experiment addresses T1, mouse ICOSL (mouse, UniProt Q9JHJ8 47-279, limits assumed).
T1 construct: Target of ELSS1 panning; also called mICOSL
T1 sequence (looked up): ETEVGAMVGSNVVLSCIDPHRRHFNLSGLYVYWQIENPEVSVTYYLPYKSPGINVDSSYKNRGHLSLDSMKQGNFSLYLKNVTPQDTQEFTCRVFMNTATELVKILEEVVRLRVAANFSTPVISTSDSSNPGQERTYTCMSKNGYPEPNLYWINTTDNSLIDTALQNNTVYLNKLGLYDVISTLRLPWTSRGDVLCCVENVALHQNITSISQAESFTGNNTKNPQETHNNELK
Description: lead clones against targets used to screen ELSS1; alignment legend.

B1: SEQ ID NO 42 (VNAR)
VNAR: TRVDQTPRTATKETGESLTINCVLTDTEYGLFSTSWFRKNPGTTDWERMSIGGRYVESVNKGAKSFSLRIKDLTVADSATYYCKALGWWPPAFPHWYDGAGTVLTVN
notes: VNAR
On to B1, for which the binding result was “binds”.

B2: SEQ ID NO 45 (VNAR)
VNAR: TRVDQTPRTATKETGESLTINCVLTDTGYGLFSTSWFRKNPGTTDWERMSIGGRYVESVNKGAKSFSLRIKDLTVADSATYYCKALGWIPPEFPHWYDGAGTVLTVN
notes: VNAR
Regarding B2, the binding result is on record as “binds”.

B3: SEQ ID NO 43 (VNAR)
VNAR: TRVDQTPRTATKETGESLTINCVLTDTRYALYSTSWFRKNPGTTDWERMSIGGRYVESVNKGAKSFSLRIKDLTVADSATYICRANEMMPPMDVYGAGTVLTVN
notes: VNAR
Consider B3, for which the binding result was “binds”.

B4: SEQ ID NO 41 (VNAR)
VNAR: ASVNQTPRTATKETGESLTINCVLTDTGYGWFATSWFRKNPGTTDWERMSIGGRYVESVNKGAKSFSLRIKDLTVADSATYICRADMWPKNTKYSPDVYGAGTVLTVN
notes: VNAR
Turning to B4, the binding result is recorded as “binds”.

B5: SEQ ID NO 44 (VNAR)
VNAR: TRVDQTPRTATKETGESLTINCVLTDTSYGWFSTSWFRKNPGTTDWERMSIGGRYVESVNKGAKSFSLRIKDLTVADSATYICRAQAAIPDFPRYVYGAGTVLTVN
notes: VNAR
Turning to B5, the binding result is on record as “binds”.
